± gives the uncertainty stated by the source.
B1: Intersectin-2, residues 1129 to 1183; numbered along this chain, Q9NZM3 (parent)
chain: VCQVIAMYDYAANNEDELSFSKGQLINVMNKDDPDWWQGEINGVTGLFPSNYVKM

Variants of: B1
Assay: abundance fitness (aPCA) (normalised: wild type 0, dead -1); higher = more abundant; growth selection in yeast, the domain comes from the species named
Details: Homo sapiens

VCQVIAMYDYAANNEDELSFSKGQLINVMNKDDPDWWQGEINGVGGLFPSNYVKM and VCQVIAMYDYAANNEDELSFSKGQLINVMNKDDPDWWQGEINGVAGLFPSNYVKM are within error of each other in abundance fitness: -0.042 ± 0.045 for the first, -0.044 ± 0.028 for the second.

VCQVIAMYDYAANNEDELSFSKGQLINVMNKDDPDWWQGEINGVMGLFPSNYVKM and VCQVIAMYDYAANNEDELSFSKGQLINVMNKDDPDWWQGEINGVPGLFPSNYVKM are within error of each other in abundance fitness: -0.145 ± 0.064 for the first, -0.083 ± 0.038 for the second.

VCQVIAMYDYAANNEDELSFSKGQLINVMNKDDPDWWQGEINGVLGLFPSNYVKM and VCQVIAMYDYAANNEDELSFSKGQLINVMNKDDPDWWQGEINGVNGLFPSNYVKM are within error of each other in abundance fitness: -0.031 ± 0.03 for the first, -0.062 ± 0.062 for the second.

VCQVIAMYDYAANNEDELSFSKGQLINVMNKDDPDWWQGEINGVVGLFPSNYVKM and VCQVIAMYDYAANNEDELSFSKGQLINVMNKDDPDWWQGEINGVEGLFPSNYVKM are within error of each other in abundance fitness: -0.092 ± 0.049 for the first, -0.053 ± 0.038 for the second.

VCQVIAMYDYAANNEDELSFSKGQLINVMNKDDPDWWQGEINGVSGLFPSNYVKM and VCQVIAMYDYAANNEDELSFSKGQLINVMNKDDPDWWQGEINGVKGLFPSNYVKM are within error of each other in abundance fitness: -0.003 ± 0.041 for the first, -0.03 ± 0.04 for the second.

Going from VCQVIAMYDYAANNEDELSFSKGQLINVMNKDDPDWWQGEINGVDGLFPSNYVKM to VCQVIAMYDYAANNEDELSFSKGQLINVMNKDDPDWWQGEINGVTNLFPSNYVKM, the abundance fitness falls from -0.1 ± 0.056 to -0.483 ± 0.042.

Compared with VCQVIAMYDYAANNEDELSFSKGQLINVMNKDDPDWWQGEINGVTTLFPSNYVKM, VCQVIAMYDYAANNEDELSFSKGQLINVMNKDDPDWWQGEINGVTALFPSNYVKM is higher in abundance fitness: -0.788 ± 0.11 for the first, -0.137 ± 0.03 for the second.

Going from VCQVIAMYDYAANNEDELSFSKGQLINVMNKDDPDWWQGEINGVTKLFPSNYVKM to VCQVIAMYDYAANNEDELSFSKGQLINVMNKDDPDWWQGEINGVTELFPSNYVKM, the abundance fitness falls from -0.1 ± 0.033 to -0.973 ± 0.056.

Compared with VCQVIAMYDYAANNEDELSFSKGQLINVMNKDDPDWWQGEINGVTMLFPSNYVKM, VCQVIAMYDYAANNEDELSFSKGQLINVMNKDDPDWWQGEINGVTRLFPSNYVKM is higher in abundance fitness: -1.06 ± 0.15 for the first, -0.318 ± 0.037 for the second.

Going from VCQVIAMYDYAANNEDELSFSKGQLINVMNKDDPDWWQGEINGVTPLFPSNYVKM to VCQVIAMYDYAANNEDELSFSKGQLINVMNKDDPDWWQGEINGVTSLFPSNYVKM, the abundance fitness rises from -1.01 ± 0.17 to -0.764 ± 0.047.

VCQVIAMYDYAANNEDELSFSKGQLINVMNKDDPDWWQGEINGVTWLFPSNYVKM and VCQVIAMYDYAANNEDELSFSKGQLINVMNKDDPDWWQGEINGVTYLFPSNYVKM are within error of each other in abundance fitness: -0.92 ± 0.083 for the first, -0.807 ± 0.21 for the second.

First: VCQVIAMYDYAANNEDELSFSKGQLINVMNKDDPDWWQGEINGVTHLFPSNYVKM
Second: VCQVIAMYDYAANNEDELSFSKGQLINVMNKDDPDWWQGEINGVTDLFPSNYVKM
The abundance fitness of the first is lower: -1.05 ± 0.1 for the first, -0.799 ± 0.13 for the second.

Compared with VCQVIAMYDYAANNEDELSFSKGQLINVMNKDDPDWWQGEINGVTQLFPSNYVKM, VCQVIAMYDYAANNEDELSFSKGQLINVMNKDDPDWWQGEINGVTCLFPSNYVKM is higher in abundance fitness: -0.945 ± 0.082 for the first, -0.606 ± 0.068 for the second.

VCQVIAMYDYAANNEDELSFSKGQLINVMNKDDPDWWQGEINGVTFLFPSNYVKM and VCQVIAMYDYAANNEDELSFSKGQLINVMNKDDPDWWQGEINGVTLLFPSNYVKM are within error of each other in abundance fitness: -0.864 ± 0.27 for the first, -0.701 ± 0.06 for the second.

First: VCQVIAMYDYAANNEDELSFSKGQLINVMNKDDPDWWQGEINGVTILFPSNYVKM
Second: VCQVIAMYDYAANNEDELSFSKGQLINVMNKDDPDWWQGEINGHTGLFPSNYVKM
The abundance fitness of the first is lower: -1.14 ± 0.22 for the first, 0.028 ± 0.058 for the second.

VCQVIAMYDYAANNEDELSFSKGQLINVMNKDDPDWWQGEINGDTGLFPSNYVKM and VCQVIAMYDYAANNEDELSFSKGQLINVMNKDDPDWWQGEINGCTGLFPSNYVKM are within error of each other in abundance fitness: -0.117 ± 0.062 for the first, -0.023 ± 0.045 for the second.

VCQVIAMYDYAANNEDELSFSKGQLINVMNKDDPDWWQGEINGNTGLFPSNYVKM and VCQVIAMYDYAANNEDELSFSKGQLINVMNKDDPDWWQGEINGETGLFPSNYVKM are within error of each other in abundance fitness: -0.049 ± 0.046 for the first, -0.108 ± 0.062 for the second.

VCQVIAMYDYAANNEDELSFSKGQLINVMNKDDPDWWQGEINGRTGLFPSNYVKM and VCQVIAMYDYAANNEDELSFSKGQLINVMNKDDPDWWQGEINGSTGLFPSNYVKM are within error of each other in abundance fitness: -0.055 ± 0.034 for the first, -0.046 ± 0.034 for the second.

VCQVIAMYDYAANNEDELSFSKGQLINVMNKDDPDWWQGEINGYTGLFPSNYVKM and VCQVIAMYDYAANNEDELSFSKGQLINVMNKDDPDWWQGEINGFTGLFPSNYVKM are within error of each other in abundance fitness: -0.101 ± 0.057 for the first, -0.098 ± 0.045 for the second.

Going from VCQVIAMYDYAANNEDELSFSKGQLINVMNKDDPDWWQGEINGMTGLFPSNYVKM to VCQVIAMYDYAANNEDELSFSKGQLINVMNKDDPDWWQGEINGGTGLFPSNYVKM, the abundance fitness rises from -0.169 ± 0.061 to 0.001 ± 0.039.

VCQVIAMYDYAANNEDELSFSKGQLINVMNKDDPDWWQGEINGKTGLFPSNYVKM and VCQVIAMYDYAANNEDELSFSKGQLINVMNKDDPDWWQGEINGQTGLFPSNYVKM are within error of each other in abundance fitness: -0.056 ± 0.05 for the first, -0.083 ± 0.066 for the second.

Going from VCQVIAMYDYAANNEDELSFSKGQLINVMNKDDPDWWQGEINGPTGLFPSNYVKM to VCQVIAMYDYAANNEDELSFSKGQLINVMNKDDPDWWQGEINGTTGLFPSNYVKM, the abundance fitness rises from -0.438 ± 0.054 to -0.052 ± 0.053.

VCQVIAMYDYAANNEDELSFSKGQLINVMNKDDPDWWQGEINGLTGLFPSNYVKM and VCQVIAMYDYAANNEDELSFSKGQLINVMNKDDPDWWQGEINGATGLFPSNYVKM are within error of each other in abundance fitness: -0.033 ± 0.041 for the first, -0.006 ± 0.043 for the second.

First: VCQVIAMYDYAANNEDELSFSKGQLINVMNKDDPDWWQGEINGWTGLFPSNYVKM
Second: VCQVIAMYDYAANNEDELSFSKGQLINVMNKDDPDWWQGEINGITGLFPSNYVKM
The abundance fitness of the first is lower: -0.151 ± 0.049 for the first, 0.027 ± 0.051 for the second.

— the Human Domainome abundance scans (Beltran et al. 2025)
